The text below walks through data of paper PMC2788870.

The target of the experiment is His6-HPr (B. subtilis) (UniProt P08877). The experiment can be described thus: pull-down.
Sequence of UniProt P08877 (P08877 whole entry): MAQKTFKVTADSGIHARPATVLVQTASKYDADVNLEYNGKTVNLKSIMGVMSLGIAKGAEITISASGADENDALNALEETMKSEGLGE

“GST-HBD (from UniProt O31522 403-515) (domain or fragment)” came in with a stoichiometry N of 1.

As usually defined, the stoichiometry N is a count of units in the complex or per binding partner.
